Experiment [1] addresses recombinant human CD25-Fc chimera (human) (UniProt P01589). As to the kind of experiment: IP-FCM (capture on antibody beads, detection by flow cytometry); data not shown: as a4 with recombinant CD25, but 500 U/ml or 10,000 U/ml IL-2.
For experiment [2] the target is unchanged. The experiment in a line: IP-FCM (capture on antibody beads, detection by flow cytometry); CD25-Fc captured on anti-CD25 CML beads overnight, washed; IL-2 (1,000 U/ml) added for 1 h with or without Ro-26-4550 or control compounds; washed, probed with anti-IL-2. Background: Flow cytometry measures light scatter and fluorescence of single cells or particles in a stream.

A further experiment has as its target T1, IL-2 (Homo sapiens, UniProt P60568, C145S).
T1 construct: gene IL2; recombinant human IL-2 (Proleukin); with CD25 (IL-2 receptor α-chain; recombinant human CD25-Fc chimera, or endogenous CD25 from PBMC lysate)
The experiment in a line: IP-FCM bead assay of the IL-2:CD25 interaction with recombinant proteins (also with endogenous CD25 captured from PBMC lysate). It counts as biochemical.

Two substances from article PMC3448684, “IP-FCM Measures Physiologic Protein-Protein Interactions Modulated by Signal Transduction and Small-Molecule Drug Inhibition” (PLoS ONE, 2012) can be followed below.

Chain of recombinant human CD25-Fc chimera (human) (P01589 22-240, change not shown): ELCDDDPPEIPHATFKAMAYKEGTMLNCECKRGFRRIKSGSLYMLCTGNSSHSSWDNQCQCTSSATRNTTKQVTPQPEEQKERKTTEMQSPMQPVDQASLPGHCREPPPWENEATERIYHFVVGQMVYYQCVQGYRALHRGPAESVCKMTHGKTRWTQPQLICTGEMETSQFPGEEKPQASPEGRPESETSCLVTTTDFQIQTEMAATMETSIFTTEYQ
Chain of recombinant human IL-2 (Proleukin) (P60568 21-153): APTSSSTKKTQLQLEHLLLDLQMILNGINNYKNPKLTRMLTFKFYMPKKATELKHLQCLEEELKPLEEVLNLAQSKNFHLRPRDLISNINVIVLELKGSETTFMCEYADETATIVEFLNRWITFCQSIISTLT
T1 sequence (P60568 22-153 C145S): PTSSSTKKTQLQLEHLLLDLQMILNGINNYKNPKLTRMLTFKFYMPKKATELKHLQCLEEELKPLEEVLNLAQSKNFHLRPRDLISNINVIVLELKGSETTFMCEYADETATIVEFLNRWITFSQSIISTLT
T1 sequence (P01589 22-272 partner): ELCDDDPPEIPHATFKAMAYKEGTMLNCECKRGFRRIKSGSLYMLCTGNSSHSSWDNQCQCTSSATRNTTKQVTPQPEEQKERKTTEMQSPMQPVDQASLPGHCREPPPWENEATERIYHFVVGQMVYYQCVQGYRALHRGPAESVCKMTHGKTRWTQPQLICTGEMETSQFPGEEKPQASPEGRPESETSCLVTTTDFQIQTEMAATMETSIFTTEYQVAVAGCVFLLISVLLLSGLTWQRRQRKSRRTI

Regarding “recombinant human IL-2 (Proleukin) (from UniProt P60568 21-153) (ligand)”, the percent reduction of binding with Ro-26-4550, 10,000 U/ml IL-2 in experiment [1] came to 44%. Moreover, the percent reduction of binding with Ro-26-4550 (10 mM [sic]), 1,000 U/ml IL-2 in experiment [2] turned out to be 62%.

As to Ro-26-4550 [R26], the “% reduction of IL-2:CD25 binding at 10 μM (Methods; printed as 10 mM in Results)” value at IL-2 was 62 % reduction of IL-2:CD25 binding at 10 µM (Methods; printed as 10 mM in Results).
